The source of these data is patent publication US20150344540A1, “NOVEL GLP-1 RECEPTOR AGONISTS WITH CHOLESTEROL EFFLUX ACTIVITY” (NOVO NORDISK A/S, priority 2012, published 2015).

Where a SMILES comes first, the peptide text is derived from it. Where no end group is shown, it is not given here. [ ]: non-standard residue; d: D form. Aib = CC(C)(N)C(=O)O

To fix the notation:
B1: [Aib8,Glu23,Val25,Arg26,Glu34,Arg35,Aib36,Arg37]-GLP-1-(7-37)-peptidyl-Glu-Phe-Leu amide (peptide)
peptide: H[Aib]EGTFTSDVSSYLEGEAVREFIAWLVER[Aib]REFL-NH2
modifications: N-terminus assumed
SMILES: CC[C@H](C)[C@H](NC(=O)[C@H](Cc1ccccc1)NC(=O)[C@H](CCC(=O)O)NC(=O)[C@H](CCCNC(=N)N)NC(=O)[C@@H](NC(=O)[C@H](C)NC(=O)[C@H](CCC(=O)O)NC(=O)CNC(=O)[C@H](CCC(=O)O)NC(=O)[C@H](CC(C)C)NC(=O)[C@H](Cc1ccc(O)cc1)NC(=O)[C@H](CO)NC(=O)[C@H](CO)NC(=O)[C@@H](NC(=O)[C@H](CC(=O)O)NC(=O)[C@H](CO)NC(=O)[C@@H](NC(=O)[C@H](Cc1ccccc1)NC(=O)[C@@H](NC(=O)CNC(=O)[C@H](CCC(=O)O)NC(=O)C(C)(C)NC(=O)[C@@H](N)Cc1c[nH]cn1)[C@@H](C)O)[C@@H](C)O)C(C)C)C(C)C)C(=O)N[C@@H](C)C(=O)N[C@@H](Cc1c[nH]c2ccccc12)C(=O)N[C@@H](CC(C)C)C(=O)N[C@H](C(=O)N[C@@H](CCC(=O)O)C(=O)N[C@@H](CCCNC(=N)N)C(=O)NC(C)(C)C(=O)N[C@@H](CCCNC(=N)N)C(=O)N[C@@H](CCC(=O)O)C(=O)N[C@@H](Cc1ccccc1)C(=O)N[C@@H](CC(C)C)C(N)=O)C(C)C
B2: [Aib8,Glu34,Lys35,Aib36,Lys37]-GLP-1-(7-37)-peptidyl-Glu-Phe-Leu amide (peptide)
peptide: H[Aib]EGTFTSDVSSYLEGQAAKEFIAWLVEK[Aib]KEFL-NH2
modifications: N-terminus assumed
SMILES: CC[C@H](C)[C@H](NC(=O)[C@H](Cc1ccccc1)NC(=O)[C@H](CCC(=O)O)NC(=O)[C@H](CCCCN)NC(=O)[C@H](C)NC(=O)[C@H](C)NC(=O)[C@H](CCC(N)=O)NC(=O)CNC(=O)[C@H](CCC(=O)O)NC(=O)[C@H](CC(C)C)NC(=O)[C@H](Cc1ccc(O)cc1)NC(=O)[C@H](CO)NC(=O)[C@H](CO)NC(=O)[C@@H](NC(=O)[C@H](CC(=O)O)NC(=O)[C@H](CO)NC(=O)[C@@H](NC(=O)[C@H](Cc1ccccc1)NC(=O)[C@@H](NC(=O)CNC(=O)[C@H](CCC(=O)O)NC(=O)C(C)(C)NC(=O)[C@@H](N)Cc1c[nH]cn1)[C@@H](C)O)[C@@H](C)O)C(C)C)C(=O)N[C@@H](C)C(=O)N[C@@H](Cc1c[nH]c2ccccc12)C(=O)N[C@@H](CC(C)C)C(=O)N[C@H](C(=O)N[C@@H](CCC(=O)O)C(=O)N[C@@H](CCCCN)C(=O)NC(C)(C)C(=O)N[C@@H](CCCCN)C(=O)N[C@@H](CCC(=O)O)C(=O)N[C@@H](Cc1ccccc1)C(=O)N[C@@H](CC(C)C)C(N)=O)C(C)C
B3: [Aib8,Glu23,Val25,Glu34,Lys35,Phe36,Lys37]-GLP-1-(7-37)-peptidyl-Glu-Ala-Phe amide (peptide)
peptide: H[Aib]EGTFTSDVSSYLEGEAVKEFIAWLVEKFKEAF-NH2
modifications: N-terminus assumed
SMILES: CC[C@H](C)[C@H](NC(=O)[C@H](Cc1ccccc1)NC(=O)[C@H](CCC(=O)O)NC(=O)[C@H](CCCCN)NC(=O)[C@@H](NC(=O)[C@H](C)NC(=O)[C@H](CCC(=O)O)NC(=O)CNC(=O)[C@H](CCC(=O)O)NC(=O)[C@H](CC(C)C)NC(=O)[C@H](Cc1ccc(O)cc1)NC(=O)[C@H](CO)NC(=O)[C@H](CO)NC(=O)[C@@H](NC(=O)[C@H](CC(=O)O)NC(=O)[C@H](CO)NC(=O)[C@@H](NC(=O)[C@H](Cc1ccccc1)NC(=O)[C@@H](NC(=O)CNC(=O)[C@H](CCC(=O)O)NC(=O)C(C)(C)NC(=O)[C@@H](N)Cc1c[nH]cn1)[C@@H](C)O)[C@@H](C)O)C(C)C)C(C)C)C(=O)N[C@@H](C)C(=O)N[C@@H](Cc1c[nH]c2ccccc12)C(=O)N[C@@H](CC(C)C)C(=O)N[C@H](C(=O)N[C@@H](CCC(=O)O)C(=O)N[C@@H](CCCCN)C(=O)N[C@@H](Cc1ccccc1)C(=O)N[C@@H](CCCCN)C(=O)N[C@@H](CCC(=O)O)C(=O)N[C@@H](C)C(=O)N[C@@H](Cc1ccccc1)C(N)=O)C(C)C
B4: [Aib2,Glu21,Lys29,Aib30,Leu31,Glu32,Phe33,Leu34,Leu36,Leu37]-Exendin-4-(1-37)-peptide amide (peptide)
peptide: H[Aib]EGTFTSDLSKQMEEEAVREFIEWLKNK[Aib]LEFLALL-NH2
modifications: N-terminus assumed
SMILES: CC[C@H](C)[C@H](NC(=O)[C@H](Cc1ccccc1)NC(=O)[C@H](CCC(=O)O)NC(=O)[C@H](CCCNC(=N)N)NC(=O)[C@@H](NC(=O)[C@H](C)NC(=O)[C@H](CCC(=O)O)NC(=O)[C@H](CCC(=O)O)NC(=O)[C@H](CCC(=O)O)NC(=O)[C@H](CCSC)NC(=O)[C@H](CCC(N)=O)NC(=O)[C@H](CCCCN)NC(=O)[C@H](CO)NC(=O)[C@H](CC(C)C)NC(=O)[C@H](CC(=O)O)NC(=O)[C@H](CO)NC(=O)[C@@H](NC(=O)[C@H](Cc1ccccc1)NC(=O)[C@@H](NC(=O)CNC(=O)[C@H](CCC(=O)O)NC(=O)C(C)(C)NC(=O)[C@@H](N)Cc1c[nH]cn1)[C@@H](C)O)[C@@H](C)O)C(C)C)C(=O)N[C@@H](CCC(=O)O)C(=O)N[C@@H](Cc1c[nH]c2ccccc12)C(=O)N[C@@H](CC(C)C)C(=O)N[C@@H](CCCCN)C(=O)N[C@@H](CC(N)=O)C(=O)N[C@@H](CCCCN)C(=O)NC(C)(C)C(=O)N[C@@H](CC(C)C)C(=O)N[C@@H](CCC(=O)O)C(=O)N[C@@H](Cc1ccccc1)C(=O)N[C@@H](CC(C)C)C(=O)N[C@@H](C)C(=O)N[C@@H](CC(C)C)C(=O)N[C@@H](CC(C)C)C(N)=O
B5: [Asn14,Met16,Thr17,Asn18,Glu23,Val25,Glu34,Lys35,Aib36,Lys37]-GLP-1-(7-37)-peptidyl-Glu-Phe-Leu amide (peptide)
peptide: HAEGTFTNDMTNYLEGEAVKEFIAWLVEK[Aib]KEFL-NH2
modifications: N-terminus assumed
SMILES: CC[C@H](C)[C@H](NC(=O)[C@H](Cc1ccccc1)NC(=O)[C@H](CCC(=O)O)NC(=O)[C@H](CCCCN)NC(=O)[C@@H](NC(=O)[C@H](C)NC(=O)[C@H](CCC(=O)O)NC(=O)CNC(=O)[C@H](CCC(=O)O)NC(=O)[C@H](CC(C)C)NC(=O)[C@H](Cc1ccc(O)cc1)NC(=O)[C@H](CC(N)=O)NC(=O)[C@@H](NC(=O)[C@H](CCSC)NC(=O)[C@H](CC(=O)O)NC(=O)[C@H](CC(N)=O)NC(=O)[C@@H](NC(=O)[C@H](Cc1ccccc1)NC(=O)[C@@H](NC(=O)CNC(=O)[C@H](CCC(=O)O)NC(=O)[C@H](C)NC(=O)[C@@H](N)Cc1c[nH]cn1)[C@@H](C)O)[C@@H](C)O)[C@@H](C)O)C(C)C)C(=O)N[C@@H](C)C(=O)N[C@@H](Cc1c[nH]c2ccccc12)C(=O)N[C@@H](CC(C)C)C(=O)N[C@H](C(=O)N[C@@H](CCC(=O)O)C(=O)N[C@@H](CCCCN)C(=O)NC(C)(C)C(=O)N[C@@H](CCCCN)C(=O)N[C@@H](CCC(=O)O)C(=O)N[C@@H](Cc1ccccc1)C(=O)N[C@@H](CC(C)C)C(N)=O)C(C)C

Chain of human GLP-1 receptor (Homo sapiens, UniProt P43220) (P43220 24-463): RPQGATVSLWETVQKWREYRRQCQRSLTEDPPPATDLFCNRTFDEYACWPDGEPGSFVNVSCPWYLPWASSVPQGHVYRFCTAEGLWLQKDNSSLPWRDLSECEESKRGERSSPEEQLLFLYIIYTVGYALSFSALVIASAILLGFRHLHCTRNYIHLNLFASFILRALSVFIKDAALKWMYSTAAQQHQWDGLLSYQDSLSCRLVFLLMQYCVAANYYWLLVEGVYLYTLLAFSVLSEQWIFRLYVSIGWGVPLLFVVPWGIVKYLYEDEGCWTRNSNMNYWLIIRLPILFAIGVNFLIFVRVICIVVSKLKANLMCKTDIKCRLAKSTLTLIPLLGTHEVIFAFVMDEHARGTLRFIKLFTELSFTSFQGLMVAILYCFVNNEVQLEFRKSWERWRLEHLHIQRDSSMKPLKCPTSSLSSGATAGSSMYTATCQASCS

For the first assay, the target named is human GLP-1 receptor (human, UniProt P43220). The experiment in a line: cell-based or functional assay.
Settings: not given
As for B1, the “CRE luciferase EC50, 0% HSA” value turned out to be 0.086 nM and the “CRE luciferase EC50, 1% HSA” value worked out at 0.041 nM. For B2 the same measures were 0.108 nM and 0.042 nM. For B3 the same measures were 0.372 nM and 0.115 nM. For B4, in that order: 0.754 nM and 0.388 nM. Take B5: the “CRE luciferase EC50, 0% HSA” value came out at 0.186 nM and the “CRE luciferase EC50, 1% HSA” value stood at 0.077 nM.

The next assay addresses human GLP-1 receptor (Homo sapiens, UniProt P43220). In words: Functional GLP-1 receptor assay, in vitro potency (CRE luciferase; whole cells). Format: cell-based. The settings on record: GLP1R CRE luc 1% HSA EC50 Mean Value, BHK cells expressing human GLP-1 receptor, 1% HSA.
Usually EC50 stands for the midpoint of the concentration-response curve. The low end stands for higher potency in that assay, the high end for lower potency in that assay. The molecule `CC[C@H](C)[C@H](NC(=O)[C@H](Cc1ccccc1)NC(=O)[C@H](CCC(=O)O)NC(=O)[C@H](CCCCN)NC(=O)[C@@H](NC(=O)[C@H](C)NC(=O)[C@H](CCC(=O)O)NC(=O)CNC(=O)[C@H](CCC(=O)O)NC(=O)[C@H](CC(C)C)NC(=O)[C@H](Cc1ccc(O)cc1)NC(=O)[C@H](CCC(=O)O)NC(=O)[C@@H](NC(=O)[C@@H](NC(=O)[C@H](CC(=O)O)NC(=O)[C@H](CC(N)=O)NC(=O)[C@@H](NC(=O)[C@H](Cc1ccc(O)cc1)NC(=O)[C@@H](NC(=O)CNC(=O)[C@H](CCC(=O)O)NC(=O)[C@H](C)NC(=O)[C@@H](N)Cc1c[nH]cn1)[C@@H](C)O)[C@@H](C)O)C(C)C)[C@@H](C)O)C(C)C)C(=O)N[C@@H](C)C(=O)N[C@@H](Cc1c[nH]c2ccccc12)C(=O)N[C@@H](CC(C)C)C(=O)N[C@H](C(=O)N[C@@H](CCC(=O)O)C(=O)N[C@@H](CCCCN)C(=O)NC(C)(C)C(=O)N[C@@H](CCCCN)C(=O)N[C@@H](CCC(=O)O)C(=O)N[C@@H](Cc1ccccc1)C(=O)N[C@@H](CC(C)C)C(N)=O)C(C)C` [Compound 13, [Tyr12,Asn14,Thr17,Glu18,Glu23,Val25,Glu34,Lys35,Aib36,Lys37]-GLP-1-(7-37)-peptidyl-Glu-Phe-Leu amide] (H-HAEGTYTNDVTEYLEGEAVKEFIAWLVEK[Aib]KEFL-NH2; N-terminus assumed) displayed a concentration giving a half-maximal response (EC50) of 0.104 nM.

The molecule `CC[C@H](C)[C@H](NC(=O)[C@H](Cc1ccccc1)NC(=O)[C@H](CCC(=O)O)NC(=O)[C@H](CCCCN)NC(=O)[C@@H](NC(=O)[C@H](C)NC(=O)[C@H](CCC(=O)O)NC(=O)CNC(=O)[C@H](CCC(=O)O)NC(=O)[C@H](Cc1ccc(O)cc1)NC(=O)[C@H](Cc1ccc(O)cc1)NC(=O)[C@H](CO)NC(=O)[C@H](CO)NC(=O)[C@@H](NC(=O)[C@H](CC(=O)O)NC(=O)[C@H](Cc1c[nH]cn1)NC(=O)[C@@H](NC(=O)[C@H](Cc1ccccc1)NC(=O)[C@@H](NC(=O)CNC(=O)[C@H](CCC(=O)O)NC(=O)[C@H](C)NC(=O)[C@@H](N)Cc1c[nH]cn1)[C@@H](C)O)[C@@H](C)O)C(C)C)C(C)C)C(=O)N[C@@H](C)C(=O)N[C@@H](Cc1c[nH]c2ccccc12)C(=O)N[C@@H](CC(C)C)C(=O)N[C@H](C(=O)N[C@@H](CCC(=O)O)C(=O)N[C@@H](CCCCN)C(=O)NC(C)(C)C(=O)N[C@@H](CCCCN)C(=O)N[C@@H](CCC(=O)O)C(=O)N[C@@H](Cc1ccccc1)C(=O)N[C@@H](CC(C)C)C(N)=O)C(C)C` [Compound 15, [His4,Tyr20,Glu23,Val25,Glu34,Lys35,Aib36,Lys37]-GLP-1-(7-37)-peptidyl-Glu-Phe-Leu amide] (H-HAEGTFTHDVSSYYEGEAVKEFIAWLVEK[Aib]KEFL-NH2; N-terminus assumed) came in with a 50% effective concentration (EC50) of 0.101 nM.
